Experimental findings from patent US20230348630A1 are described below.

Experiment [1] has as its target BCMA-his protein (Cat #: BCA-H522y, ACRO) (human) (UniProt Q02223). In words: phage ELISA on BCMA-his protein, detection with HRP anti-M13 antibody.
In experiment [2] the target is CD3D&E protein (Cat #: CT038-H2508H, Sino Biological) (human) (UniProt P04234). In words: phage ELISA on CD3D&E protein, detection with HRP anti-M13 antibody.
Chain of CD3D&E protein (Cat #: CT038-H2508H, Sino Biological) (human) (P04234 22-105, chain 1 of 2): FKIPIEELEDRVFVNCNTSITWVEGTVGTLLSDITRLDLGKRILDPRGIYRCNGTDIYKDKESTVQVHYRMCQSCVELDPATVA
Chain of CD3D&E protein (Cat #: CT038-H2508H, Sino Biological) (human) (P07766 23-126, chain 2 of 2, further chain): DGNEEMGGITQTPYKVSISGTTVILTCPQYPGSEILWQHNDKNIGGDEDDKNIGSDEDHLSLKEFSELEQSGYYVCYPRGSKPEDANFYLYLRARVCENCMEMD

Chain of BCMA-his protein (Cat #: BCA-H522y, ACRO) (human) (Q02223 1-54 limits assumed): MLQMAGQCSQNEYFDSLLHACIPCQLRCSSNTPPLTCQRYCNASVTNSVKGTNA

B1: anti-BCMA antibody A6-3 scFv displayed on phage (scFv, part only; not given: scFv linker, phage coat fusion, V domains shown, not shown: another chain or arm of the molecule; large carriers; small tags and cut ends)
VH: QVQLVQSGAEVKKPGASVKVSCKASGYTFTNHIIHWVRQAPGQGLEWMGYINPYPGYHGYNDKFSGRATMTSDTSTSTVYMELSSLRSEDTAVYYCARDGYYRDQDVLDYWGQGTLVTVSS
VL: DIQMTQSPSSLSASVGDRVTITCKASQDISQYLNWYQQKPGKAPKLLIYYTSGLHPGVPSRFSGSGSGTDFTFTISSLEPEDIATYYCQQGYALPWTFGQGTKVEIK
In turn, B1 registered an EC50 (read off the curve) in experiment [1] of 1 µg/mL.

B2: anti-CD3D&E antibody D1E9 scFv displayed on phage (scFv, part only; not given: scFv linker, phage coat fusion, V domains shown, not shown: another chain or arm of the molecule; large carriers; small tags and cut ends)
VH: EVQLVESGGGLVQPGRSLRLSCAASGFTFDDFAMHWVRQAPGKGLEWVSGITWNSGSVGYADSVKGRFTISRDNAKKSLYLQMNSLRAEDTALYYCAKDRSGYGHYYYGMDVWGQGTTVTVAS
VL: EIVMTQSPATLSVSPGERATLSCRASTSVSHNVAWYQQKPGQAPRLLIYGASTKVTGIPARFSGSGSGTEFTLTISSLQSEDFAVYYCQHYINWPLTFGGGTKVEIK
As to B2, in experiment [2], the EC50 (read off the curve) was found to be 20 µg/mL.

B3: anti-CD3D&E antibody 7-1A12 scFv displayed on phage (scFv, part only; not given: scFv linker, part only)
scFv, part: EVQLVESGGGLVQPGRSLRLSCAASGFTFSDYTMHWVRQAPGKGLEWVSGISWNTGTIGYADSVKGRFTISRDNAKKSLYLQMNSLRAEDTALYYCAKDNSGYGHYYFGMDVWGQGTTVTVASEIVMTQSPATLSVSPGERATLSCRASQSVSRNVAWYQQKPGQAPRLLIYGASTRQTGIPARFSGSGSGTEFTLTISSLQSEDFAVYYCQSYINWPLQFGGGTKVEIK
B3 displayed an EC50 (read off the curve) in experiment [2] of 4 µg/mL.
